Results taken from patent US12648964B2, “Chimeric Tim receptors and uses thereof” (CERO THERAPEUTICS HOLDINGS, INC., priority 2020, dated 2026).
Entries after “also recorded” stand apart in the source; their conditions may differ. Where two headings read alike, the source gives them in different places.

Experiments:
Kuramochi cells [1] = settings: 1.56 or 25 μM Niraparib, 48 hours, vs DMSO
Description: FIG. 7A: Flow cytometry measurement of surface PtdSer. Kuramochi cells were treated with 1.56 or 25 μM Niraparib or with equivalent volume of DMSO (control). 48 hours later samples were trypsinized and stained using a Tim4-Fc followed by a fluorescently-labeled secondary antibody to the Tim4-Fc. […] All data were collected via IncuCyte.
(§1) In ovarian tumors, poly (ADP-ribose) polymerase (PARP) inhibitors, such as Niraparib, are clinically approved drugs which target DNA damage response pathways. Responses are rarely complete, with relapse common after treatment. To induce Ptd-Ser exposure, BRCA-2 mutated Kuramochi cell line was treated with therapeutic doses of the PARP inhibitor Niraparib.

Kuramochi cells [2] = settings: BRCA-2 mutated Kuramochi cell line
Description: as §1

phosphatidylserine = settings: cited from earlier work; for binding at High PtdSer: high phosphatidylserine density; for binding at Low PtdSer: low phosphatidylserine density
E7 TCR-T cells [3] = assay: E7-specific T cell proliferation by CT Violet dye dilution after co-culture with E7 peptide-pulsed CER-T cells; type: cell-based; settings: for stimulation / proliferation responses of E7-specific T cells: CER-T pulsed with E7 peptides, CT Violet dilution after 6 days
Description: FIG. 1A: a schematic of pCTX247 and pCTX1107 chimeric Tim4 receptors and pCTX1107 T cells pulsed with E7 peptides and co-cultured with E7-specific T cells to evaluate their antigen presentation capacity. FIG. 1B: E7-specific proliferation responses were measured by CT Violet dye dilution after 6 days in the presence of autologous CER-T (TLR containing or non-containing CERs) pulsed with E7 peptides. […] All data collected by FACS. Cell tracing show E7 TCR-T cells using an anti-mouse TCRb. E7 TCR-T cells were labeled with CT Violet at the time of co-culture.
Chimeric Tim4 receptor-T cells were tested to determine whether they can capture and present soluble antigens and trigger activation and proliferation of recombinant E7-restricted T cell clones in a co-culture system. First expression of Tim4 was confirmed on transduced CER T cells by flow cytometry. Tim4 binding domain-CD28 transmembrane-CD28 signaling domain-CD3z signaling domain (CTX247) and Tim4 binding domain-CD28 signaling domain-CD3z signaling domain-TLR2 signaling domain (CTX1107) were stained for Tim4 and EGFR, a transduction marker encoded on each vector. […] E7 TCRs proliferate in response to APCs pulsed with E7 peptide through MHC class I. For autologous APCs, CD4+ and CD8+ chimeric Tim4 receptor T cell products transduced with different Tim-4 chimeric receptors were pulsed with a pool of 15-mer peptides containing 11-mer overlaps derived from the E7 protein from HPV16 or vehicle. Chimeric Tim4 receptor T cells were pulsed at 37° C. for 4 hrs with E7 peptides and tested for their capacity to trigger E7-specific activation and proliferation. E7-TCR cell surface activation marker responses were evaluated by flow cytometry 24 hours following co-culture with chimeric Tim4 receptor-T cell products. After an additional 5 days of co-culture, proliferative responses were assessed by Cell Trace (CT) Violet dilution. […]

E7 TCR-T cells [4] = assay: E7 TCR-T cell activation markers CD25/CD69 after co-culture with E7 peptide-pulsed CER-T cells (flow cytometry); type: cell-based
Description: (§2) FIG. 2: T cells containing chimeric Tim4 receptors with a TLR intracellular signaling domain added to the CD3ζ signaling domain (and optionally a CD28 signaling domain) are strong stimulators of autologous E7-specific T cell responses. CER-T cells were pulsed with E7 peptide and tested for their capacity to trigger an autologous E7-specific T cell response. CD25, a T cell activation marker, was evaluated on E7 TCR-T cells, 24 hours after CER-T cells were pulsed with E7 peptides.
as §2, with “3:” for “2:”, “CD69, an early marker for” for “CD25, a”, “activation,” for “activation marker,”
Chimeric Tim4 receptor-T cells were tested to determine whether they can capture and present soluble antigens and trigger activation and proliferation of recombinant E7-restricted T cell clones in a co-culture system. First expression of Tim4 was confirmed on transduced CER T cells by flow cytometry. Tim4 binding domain-CD28 transmembrane-CD28 signaling domain-CD3z signaling domain (CTX247) and Tim4 binding domain-CD28 signaling domain-CD3z signaling domain-TLR2 signaling domain (CTX1107) were stained for Tim4 and EGFR, a transduction marker encoded on each vector. […] E7 TCRs proliferate in response to APCs pulsed with E7 peptide through MHC class I. For autologous APCs, CD4+ and CD8+ chimeric Tim4 receptor T cell products transduced with different Tim-4 chimeric receptors were pulsed with a pool of 15-mer peptides containing 11-mer overlaps derived from the E7 protein from HPV16 or vehicle. Chimeric Tim4 receptor T cells were pulsed at 37° C. for 4 hrs with E7 peptides and tested for their capacity to trigger E7-specific activation and proliferation. E7-TCR cell surface activation marker responses were evaluated by flow cytometry 24 hours following co-culture with chimeric Tim4 receptor-T cell products. After an additional 5 days of co-culture, proliferative responses were assessed by Cell Trace (CT) Violet dilution.
A higher frequency of E7-TCR containing T cells expressed both activation markers 24 hours after co-culture (FIG. 2).

[5] = 24 hours after CER-T cells pulsed with E7 peptides

## NC(=O)c1cccc2cn(-c3ccc([C@@H]4CCCNC4)cc3)nc12 [Niraparib]
Kuramochi cells [1]
  surface PtdSer (membrane phospholipid symmetry): elicits changes in membrane phospholipid symmetry, in a dose dependent manner
Kuramochi cells [2]
  inhibition of growth of Kuramochi cells: effective in inhibiting growth

B1: Tim-1: T-cell immunoglobulin and mucin domain containing protein 1, phosphatidylserine receptor (protein, UniProt Q96D42 21-364, looked up)
Hepatitis A virus cellular …: SVKVGGEAGPSVTLPCHYSGAVTSMCWNRGSCSLFTCQNGIVWTNGTHVTYRKDTRYKLLGDLSRRDVSLTIENTAVSDSGVYCCRVEHRGWFNDMKITVSLEIVPPKVTTTPIVTTVPTVTTVRTSTTVPTTTTVPMTTVPTTTVPTTMSIPTTTTVLTTMTVSTTTSVPTTTSIPTTTSVPVTTTVSTFVPPMPLPRQNHEPVATSPSSPQPAETHPTTLQGAIRREPTSSPLYSYTTDGNDTVTESSDGLWNNNQTQLFLEHSLLTANTTKGIYAGVCISVLVLLALLGVIIAKKYFFKKEVQQLSVSFSSLQIKALQNAVEKEVQAEDNIYIENSLYATD
phosphatidylserine
  binding at High PtdSer: Strong
  binding at Low PtdSer: Moderate
phosphatidylserine; listed as Tim1 binding domain
  binding at Low PtdSer: binds more strongly to a lower phosphatidylserine density
phosphatidylserine; moderate phosphatidylserine density
  binding at Moderate PtdSer: Strong

B2: pCTX247: Tim4 binding domain-CD28 transmembrane-CD28 signaling domain-CD3z signaling domain (protein)
chain: ETVVTEVLGHRVTLPCLYSSWSHNSNSMCWGKDQCPYSGCKEALIRTDGMRVTSRKSAKYRLQGTIPRGDVSLTILNPSESDSGVYCCRIEVPGWFNDVKINVRLNLQRASTTTHRTATTTTRRTTTTSPTTTRQMTTTPAALPTTVVTTPDLTTGTPLQMTTIAVFTTANTCLSLTPSTLPEEATGLLTPEPSKEGPILTAESETVLPSDSWSSVESTSADTVLLTSKESKVWDLPSTSHVSMWKTSDSVSSPQPGASDTAVPEQNKTTKTGQMDGIPMSMKNEMPISQFWVLVVVGGVLACYSLLVTVAFIIFWVRSKRSRLLHSDYMNMTPRRPGPTRKHYQPYAPPRDFAAYRSRVKFSRSADAPAYQQGQNQLYNELNLGRREEYDVLDKRRGRDPEMGGKPRRKNPQEGLYNELQKDKMAEAYSEIGMKGERRRGKGHDGLYQGLSTATKDTYDALHMQALPPR
E7 TCR-T cells [3]
  stimulation / proliferation responses of E7-specific T cells: not stimulatory

B3: Tim-4: T-cell immunoglobulin and mucin domain containing protein 4, phosphatidylserine receptor (protein, UniProt Q96H15 25-378, looked up)
T-cell immunoglobulin and …: ETVVTEVLGHRVTLPCLYSSWSHNSNSMCWGKDQCPYSGCKEALIRTDGMRVTSRKSAKYRLQGTIPRGDVSLTILNPSESDSGVYCCRIEVPGWFNDVKINVRLNLQRASTTTHRTATTTTRRTTTTSPTTTRQMTTTPAALPTTVVTTPDLTTGTPLQMTTIAVFTTANTCLSLTPSTLPEEATGLLTPEPSKEGPILTAESETVLPSDSWSSVESTSADTVLLTSKESKVWDLPSTSHVSMWKTSDSVSSPQPGASDTAVPEQNKTTKTGQMDGIPMSMKNEMPISQLLMIIAPSLGFVLFALFVAFLLRGKLMETYCSQKHTRLDYIGDSKNVLNDVQHGREDEDGLFTL
phosphatidylserine
  Cooperativity: Yes
  binding at High PtdSer: Strong
  binding at Low PtdSer: Minimal
phosphatidylserine; listed as Tim4 binding domain
  binding at Low PtdSer: binds minimally

B4: pCTX1107: Tim4 binding domain-CD28 signaling domain-CD3z signaling domain-TLR2 signaling domain (protein)
chain: ETVVTEVLGHRVTLPCLYSSWSHNSNSMCWGKDQCPYSGCKEALIRTDGMRVTSRKSAKYRLQGTIPRGDVSLTILNPSESDSGVYCCRIEVPGWFNDVKINVRLNLQRASTTTHRTATTTTRRTTTTSPTTTRQMTTTPAALPTTVVTTPDLTTGTPLQMTTIAVFTTANTCLSLTPSTLPEEATGLLTPEPSKEGPILTAESETVLPSDSWSSVESTSADTVLLTSKESKVWDLPSTSHVSMWKTSDSVSSPQPGASDTAVPEQNKTTKTGQMDGIPMSMKNEMPISQRSKRSRLLHSDYMNMTPRRPGPTRKHYQPYAPPRDFAAYRSRVKFSRSADAPAYQQGQNQLYNELNLGRREEYDVLDKRRGRDPEMGGKPRRKNPQEGLYNELQKDKMAEAYSEIGMKGERRRGKGHDGLYQGLSTATKDTYDALHMQALPPRHRFHGLWYMKMMWAWLQAKRKPRKAPSRNICYDAFVSYSERDAYWVENLMVQELENFNPPFKLCLHKRDFIPGKWIIDNIIDSIEKSHKTVFVLSENFVKSEWCKYELDFSHFRLFDENNDAAILILLEPIEKKAIPQRFCKLRKIMNTKTYLEWPMDEAQREGFWVNLRAAIKS
modifications: left off: large carriers
E7 TCR-T cells [4]; [5]
  CD25 on E7 TCR-T cells (E7-specific activation): strong stimulator of E7-specific activation
  CD69 on E7 TCR-T cells (E7-specific activation): strong stimulator of E7-specific activation
E7 TCR-T cells [4]; 24 hours after co-culture, flow cytometry
  CD25 and CD69 upregulation (E7-specific activation): strong stimulatory of E7-specific activation
E7 TCR-T cells [4]; 24 hrs following co-culture, controls 23.1%
  E7 TCR-T cell surface activation markers CD25 and CD69 upregulated: 41.2%
E7 TCR-T cells [3]
  stimulation / proliferation responses of E7-specific T cells: stimulatory for E7-specific T cells; also recorded: triggered proliferation responses of E7-specific TCRs
E7 TCR-T cells [3]; by 6 days, controls 8%
  percentage of dividing E7-TCR-T cells: 44%
